The conditions of the data set: Cereibacter sphaeroides, pH 7.4, 23 °C, Urea, Fluorescence, whole UniProt chain shown.

B1: Thioredoxin wild type, P08058 (protein)
chain: MSTVPVTDATFDTEVRKSDVPVVVDFWAEWCGPCRQIGPALEELSKEYAGKVKIVKVNVDENPESPAMLGVRGIPALFLFKNGQVVSNKVGAAPKAALATWIASAL
In the case of B1, the unfolding free energy (Potassium phosphate 20 mM) worked out at 8.2 kcal/mol and the unfolding free energy (Potassium phosphate 20mM) turned out to be 8.13 kcal/mol.
